Experimental data from paper PMC10611751 (2023).
Where two headings read alike, the source gives them in different places. Blank lines part the entries; values can stand above or below the binder they belong to.

Assays:
Test in all cases: ITC
[1] = molecular target: T1, full-length β-catenin 1-781 (mouse, UniProt Q02248 1-781)
T1 chain: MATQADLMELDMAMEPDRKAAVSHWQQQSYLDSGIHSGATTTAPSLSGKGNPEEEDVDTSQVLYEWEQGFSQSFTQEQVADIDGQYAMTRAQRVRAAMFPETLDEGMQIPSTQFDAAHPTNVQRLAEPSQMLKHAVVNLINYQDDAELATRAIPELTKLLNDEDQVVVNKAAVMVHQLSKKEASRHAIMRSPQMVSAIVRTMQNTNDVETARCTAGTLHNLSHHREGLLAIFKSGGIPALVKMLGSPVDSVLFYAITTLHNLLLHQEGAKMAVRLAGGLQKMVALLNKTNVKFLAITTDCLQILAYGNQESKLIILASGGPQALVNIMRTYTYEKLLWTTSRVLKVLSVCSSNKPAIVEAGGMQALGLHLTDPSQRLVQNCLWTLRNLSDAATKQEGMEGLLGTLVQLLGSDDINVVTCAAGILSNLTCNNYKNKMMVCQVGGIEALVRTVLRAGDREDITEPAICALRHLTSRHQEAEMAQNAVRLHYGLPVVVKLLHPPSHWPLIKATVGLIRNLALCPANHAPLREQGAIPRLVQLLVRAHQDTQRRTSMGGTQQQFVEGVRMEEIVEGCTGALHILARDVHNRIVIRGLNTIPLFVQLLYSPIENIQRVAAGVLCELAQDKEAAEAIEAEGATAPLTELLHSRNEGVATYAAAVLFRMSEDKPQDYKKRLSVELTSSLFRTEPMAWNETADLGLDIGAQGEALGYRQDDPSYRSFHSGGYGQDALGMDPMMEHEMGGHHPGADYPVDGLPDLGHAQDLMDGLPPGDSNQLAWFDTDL

[2] = molecular target: T1, full-length β-catenin 1-781
[3] = molecular target: T2, Ankyrin-G ANK repeats 8-14 (UniProt O70511 275-500)
T2 chain: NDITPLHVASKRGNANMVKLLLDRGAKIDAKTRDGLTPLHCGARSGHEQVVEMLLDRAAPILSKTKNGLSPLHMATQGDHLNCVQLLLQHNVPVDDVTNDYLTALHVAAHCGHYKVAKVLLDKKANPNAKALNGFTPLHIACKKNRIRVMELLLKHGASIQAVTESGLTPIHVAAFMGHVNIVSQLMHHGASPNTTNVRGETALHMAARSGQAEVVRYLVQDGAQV

AnkG R6-24 = molecular target: T3, AnkG R6-24 (Rattus norvegicus)
T3 chain: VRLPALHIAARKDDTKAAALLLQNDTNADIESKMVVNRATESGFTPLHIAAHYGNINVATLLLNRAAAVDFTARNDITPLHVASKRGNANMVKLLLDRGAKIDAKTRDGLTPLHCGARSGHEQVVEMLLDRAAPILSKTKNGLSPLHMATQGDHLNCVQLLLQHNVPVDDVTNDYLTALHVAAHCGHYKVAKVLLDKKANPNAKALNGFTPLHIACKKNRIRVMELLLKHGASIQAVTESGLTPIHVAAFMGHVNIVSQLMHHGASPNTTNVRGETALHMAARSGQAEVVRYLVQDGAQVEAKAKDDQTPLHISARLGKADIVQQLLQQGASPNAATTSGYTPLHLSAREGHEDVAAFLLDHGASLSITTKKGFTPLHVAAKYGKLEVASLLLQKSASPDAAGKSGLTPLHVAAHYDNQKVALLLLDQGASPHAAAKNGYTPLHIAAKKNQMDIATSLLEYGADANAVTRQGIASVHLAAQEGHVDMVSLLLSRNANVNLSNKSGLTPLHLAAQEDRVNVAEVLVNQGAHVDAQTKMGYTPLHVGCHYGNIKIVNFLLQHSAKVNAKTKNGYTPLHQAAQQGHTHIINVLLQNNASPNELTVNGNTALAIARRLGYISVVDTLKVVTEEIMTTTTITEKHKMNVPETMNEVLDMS

[4] = molecular target: T4, Ankyrin-G 24 ANK repeats (residues 38-855) (UniProt O70511 38-855)
T4 chain: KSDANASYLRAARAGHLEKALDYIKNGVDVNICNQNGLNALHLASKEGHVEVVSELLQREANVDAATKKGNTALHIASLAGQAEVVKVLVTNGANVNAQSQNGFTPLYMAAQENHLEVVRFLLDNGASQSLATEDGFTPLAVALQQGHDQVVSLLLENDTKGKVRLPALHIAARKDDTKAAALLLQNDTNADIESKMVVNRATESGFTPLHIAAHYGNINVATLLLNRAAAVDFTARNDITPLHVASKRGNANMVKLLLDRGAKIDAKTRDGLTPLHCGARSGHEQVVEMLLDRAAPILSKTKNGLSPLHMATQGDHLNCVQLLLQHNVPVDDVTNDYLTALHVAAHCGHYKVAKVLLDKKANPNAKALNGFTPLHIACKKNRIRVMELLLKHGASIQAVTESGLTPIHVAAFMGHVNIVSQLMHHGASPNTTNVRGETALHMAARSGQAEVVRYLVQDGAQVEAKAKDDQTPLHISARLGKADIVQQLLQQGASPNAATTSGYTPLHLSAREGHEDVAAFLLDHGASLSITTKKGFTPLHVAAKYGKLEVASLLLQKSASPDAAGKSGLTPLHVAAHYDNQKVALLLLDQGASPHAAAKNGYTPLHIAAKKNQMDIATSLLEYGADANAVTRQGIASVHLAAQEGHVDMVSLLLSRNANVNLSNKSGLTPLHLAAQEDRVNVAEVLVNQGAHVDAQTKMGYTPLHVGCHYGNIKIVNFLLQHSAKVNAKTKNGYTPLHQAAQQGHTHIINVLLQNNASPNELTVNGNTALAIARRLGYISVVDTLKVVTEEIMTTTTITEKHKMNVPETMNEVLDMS

[5] = molecular target: T1, full-length β-catenin 1-781
p120 catenin 324-938 = molecular target: T5, p120 catenin 324-938 (mouse, UniProt P30999 324-938)
T5 chain: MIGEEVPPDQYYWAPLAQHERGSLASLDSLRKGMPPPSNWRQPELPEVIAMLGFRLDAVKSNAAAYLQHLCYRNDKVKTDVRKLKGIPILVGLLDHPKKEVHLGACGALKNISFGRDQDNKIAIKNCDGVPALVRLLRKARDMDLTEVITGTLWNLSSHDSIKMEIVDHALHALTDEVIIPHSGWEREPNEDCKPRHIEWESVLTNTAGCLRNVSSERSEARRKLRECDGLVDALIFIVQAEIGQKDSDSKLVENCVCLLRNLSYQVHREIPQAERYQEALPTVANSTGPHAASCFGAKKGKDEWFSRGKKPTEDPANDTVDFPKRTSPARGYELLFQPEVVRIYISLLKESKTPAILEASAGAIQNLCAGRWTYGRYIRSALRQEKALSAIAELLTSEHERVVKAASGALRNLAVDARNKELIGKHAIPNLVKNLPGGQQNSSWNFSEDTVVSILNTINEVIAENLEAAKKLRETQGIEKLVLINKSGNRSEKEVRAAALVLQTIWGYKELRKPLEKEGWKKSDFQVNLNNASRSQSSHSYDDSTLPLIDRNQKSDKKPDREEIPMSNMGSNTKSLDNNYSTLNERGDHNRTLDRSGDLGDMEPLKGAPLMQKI

Kd [1]: 0.08 µM
B1: E-cadherin 776-884–AnkG R1-24 complex (complex)
chain 1: not shown
chain 2: KSDANASYLRAARAGHLEKALDYIKNGVDVNICNQNGLNALHLASKEGHVEVVSELLQREANVDAATKKGNTALHIASLAGQAEVVKVLVTNGANVNAQSQNGFTPLYMAAQENHLEVVRFLLDNGASQSLATEDGFTPLAVALQQGHDQVVSLLLENDTKGKVRLPALHIAARKDDTKAAALLLQNDTNADIESKMVVNRATESGFTPLHIAAHYGNINVATLLLNRAAAVDFTARNDITPLHVASKRGNANMVKLLLDRGAKIDAKTRDGLTPLHCGARSGHEQVVEMLLDRAAPILSKTKNGLSPLHMATQGDHLNCVQLLLQHNVPVDDVTNDYLTALHVAAHCGHYKVAKVLLDKKANPNAKALNGFTPLHIACKKNRIRVMELLLKHGASIQAVTESGLTPIHVAAFMGHVNIVSQLMHHGASPNTTNVRGETALHMAARSGQAEVVRYLVQDGAQVEAKAKDDQTPLHISARLGKADIVQQLLQQGASPNAATTSGYTPLHLSAREGHEDVAAFLLDHGASLSITTKKGFTPLHVAAKYGKLEVASLLLQKSASPDAAGKSGLTPLHVAAHYDNQKVALLLLDQGASPHAAAKNGYTPLHIAAKKNQMDIATSLLEYGADANAVTRQGIASVHLAAQEGHVDMVSLLLSRNANVNLSNKSGLTPLHLAAQEDRVNVAEVLVNQGAHVDAQTKMGYTPLHVGCHYGNIKIVNFLLQHSAKVNAKTKNGYTPLHQAAQQGHTHIINVLLQNNASPNELTVNGNTALAIARRLGYISVVDTLKVVTEEIMTTTTITEKHKMNVPETMNEVLDMS

Kd [2]: 0.098 µM
B2: E-cadherin CTD–AnkG R1-24 complex (complex)
chain 1: not shown
chain 2: KSDANASYLRAARAGHLEKALDYIKNGVDVNICNQNGLNALHLASKEGHVEVVSELLQREANVDAATKKGNTALHIASLAGQAEVVKVLVTNGANVNAQSQNGFTPLYMAAQENHLEVVRFLLDNGASQSLATEDGFTPLAVALQQGHDQVVSLLLENDTKGKVRLPALHIAARKDDTKAAALLLQNDTNADIESKMVVNRATESGFTPLHIAAHYGNINVATLLLNRAAAVDFTARNDITPLHVASKRGNANMVKLLLDRGAKIDAKTRDGLTPLHCGARSGHEQVVEMLLDRAAPILSKTKNGLSPLHMATQGDHLNCVQLLLQHNVPVDDVTNDYLTALHVAAHCGHYKVAKVLLDKKANPNAKALNGFTPLHIACKKNRIRVMELLLKHGASIQAVTESGLTPIHVAAFMGHVNIVSQLMHHGASPNTTNVRGETALHMAARSGQAEVVRYLVQDGAQVEAKAKDDQTPLHISARLGKADIVQQLLQQGASPNAATTSGYTPLHLSAREGHEDVAAFLLDHGASLSITTKKGFTPLHVAAKYGKLEVASLLLQKSASPDAAGKSGLTPLHVAAHYDNQKVALLLLDQGASPHAAAKNGYTPLHIAAKKNQMDIATSLLEYGADANAVTRQGIASVHLAAQEGHVDMVSLLLSRNANVNLSNKSGLTPLHLAAQEDRVNVAEVLVNQGAHVDAQTKMGYTPLHVGCHYGNIKIVNFLLQHSAKVNAKTKNGYTPLHQAAQQGHTHIINVLLQNNASPNELTVNGNTALAIARRLGYISVVDTLKVVTEEIMTTTTITEKHKMNVPETMNEVLDMS

Kd [3]: 5 µM
Kd (AnkG R6-24): 2.9 µM
Kd [4]: 2.8 µM
Kd [5]: 0.036 µM
Kd (p120 catenin 324-938): 1.7 µM
B3: E-cadherin C-terminal domain (residues 734-884) (domain or fragment)
chain: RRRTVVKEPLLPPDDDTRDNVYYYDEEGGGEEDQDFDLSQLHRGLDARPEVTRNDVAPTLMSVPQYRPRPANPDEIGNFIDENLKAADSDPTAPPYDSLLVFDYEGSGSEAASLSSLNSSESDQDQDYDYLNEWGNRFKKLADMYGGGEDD
